From the DeepSol protein solubility set

Experiment: soluble on expression in E. coli; label from the status in PepcDB or PDB records

Sequence | soluble on expression in E. coli
MANLTEKFLRIFARRGKSIILAYDHGIEHGPADFMDNPDSADPEYILRLARDAGFDGVVFQRGIAEKYYDGSVPLILKLNGKTTLYNGEPVSVANCSVEEAVSLGASAVGYTIYPGSGFEWKMFEELARIKRDAVKFDLPLVVESFPRGGKVVNETAPEIVAYAARIALELGADAMKIKYTGDPKTFSWAVKVAGKVPVLMSGGPKTKTEEDFLKQVEGVLEAGALGIAVGRNVWQRRDALKFARALAELVYGGKKLAEPLNV | soluble
SLCQEKHTHTHSQKHLKAVCNRLSRTIGHLSAIKRMVENDKDCSEILIQLAAVKAEVNNTAKVVLKEHLAHCMVHAIEENDIQSIEELNKAIDMFMK | soluble
MKAYTKYLTFNTKKRRELIRITDEVKKAVEESEVKEGLCLVSSMHLTSSVIIQDDEEGLHEDIWEWLEKLAPYRPDYKHHRTGEDNGDAHLKNLLTHLQVVLPITNGKLDLGPWQEIFYAEFDGQRPKRVVIKIIGE | soluble
GLGNVDETLEIKQLLNIYRDLQLGHFCAFYQPQKHIDSGGVVAFEALARRVIGKGLYEMPDRFFPILEKYHLIPTLTEVMVRDILTFLMTEDAVLQDITIGVNIPGKMLTDGSFYRLLLSVAEEKQAQHALHRLSVEITEHDLIADFDAAKHEIYKLKSLGIRCALDDFGTGYSGYEYLCEIPFDVVKIDGRYIQSLGKAESSTVILQSMISSIKSLSMQVIAEWVDSDQQYQILQEMGCDLVQGYLVSPA | not soluble
MADLEAVLADVSYLMAMEKSRSQPAARASKRIVLPDPSVRSIMQKFLEKSGDMKFDKIFNQKLGFLLLKDYAENVSESPCPQIKFYEAIKEYEKMETPDERLTKAREIYDHHIMVEMLAHAHNYSKESLQHVQYHLLKQNVPPDLFHRYVLEICDQLRGDIFQRFLESDKFTRFCQWKNLELNMQLTMNDFSVHRIIGRGGFGEVYGCRKADTGKMYAMKCLDKKRIKMKQGETLALNERIMLSLVSTGQDCPFIVCMTYAFQSPDKLCFILDLMNGGDLHYHLSQHGVFTEQEMIFYASEVILGLEHMHNRFVVYRDLKPANILLDENGHVRVSDLGLACDYSKKKPHASVGTHGYMAPEVLAKGVAYDSSADWFSLGCMLYKLLKGHSPFRQHKSKDKNEIDKMTLTQDIELPNEGLSKDCRDLLEGLLKRDVPDRLGCRGKGPTEVKEHPFFKDVDWQTVYLRRMTPPLIPPRGEVNAADAFDIGNFDDDEVKGVKLQDGDSDLYKNFNIVISERWQNEIAETIFEVVNQDADKAESKKRSKQKIKVAVEEKDSDVIVHGYIKKLGGPFTSAWQTKYGKLYPSRLELYPESLTAKPELVFMDQIEDVCAEMQTIKGETAIIVKLRDGFKEPKICLTNSDEISLKEWHTSLRTAHKVSQELLQRMGRKAIKIYGVNHDPMLSESERPGSVTRAFLNRASSVDSGV | not soluble
MEYIKRKKTRKVRVGDIYIGGDAKITVQSMTNTDTRDVEATVNQIKMLEDIGCDIIRVAVVDQEAAEAIKEIKKSIKIPLVADIHFDYRLAISSMENGADKIRLNPGNIGDRERVRKVVEVAKSRQIPIRIGVNSGSLEKNVIEKYGGITPEAMVESALQHVRILEELDFYDIVISLKASSVPMTIAAYRLMSEKTDYPLHIGVTEAGTVFKGTIKSCAGLGCLLAEGIGDTIRVSLTGDPKEEVLVGHELLRALGIEKGGIELVSCPTCGRCQIDLIGIAEKVEERLEGLDKNIKVAIMGCAVNGPGEAKEADIGIAGGKGEVLLFKKGVIVRKIPQERAVEELMEEILRM | soluble
MGSDKIHHHHHHVYYAHFGLKEPPFKITPNTDFFFRGGNRGAVLEALRYAILHGEGIVKVVGEVGSGKTMLCRMLQTQLPDHVDSVYLANPSMAPEDVLHAIALELHLDIPDRLSKLEVMQRLQQALLDKHEARRQVVVFVEEAQGMPLATLEEIRLLTNLETRHHKLLQIVLFGQPELDDNLNQRQIRQLKERITHSFYLGPLSRDEIAEYLMFRLRAAGYYGPPLFTKRAVKQLAKMAQGLVRRVNILADKSLLAAFAANADQVTPRHVAAAIRDSEFAGEIQRPVGRWSVLIGGLVLGVAGMALYAWSQGMLPLPVAPAPVTHAETEQRLEEAHSLENESGRGMSGVLPLLMQREEASLVWLDSTPPEYITIALMHDFPETDQEKEQQLLSANLVLDDVYALRTKVGEEDRVIILYGAYENRQQALEEFRSLPKALQMGAYLRTIAGIREELLQHQ | not soluble
GMNSNFSYPALGVDGISSQISPIRDVWSTNLQQEMNLIMSLIERYPVVSMDTEFPGVVARPLGVFKSSDDYHYQTLRANVDSLKIIQIGLALSDEEGNAPVEACTWQFNFTFNLQDDMYAPESIELLTKSGIDFKKHQEVGIEPADFAELLIGSGLVLQEEVTWITFHSGYDFAYLLKAMTQIPLPAEYEEFYKILCIYFPKNYDIKYIMKSVLNNSKGLQDIADDLQIHRIGPQHQAGSDALLTARIFFEIRSRYFDGSIDSRMLNQLYGLGSTGSVLWHNNSSTPQIQFRDLPGAHPSPTPSNAGIPTTLTNTSSAPNFANSTFRFPPRVV | soluble
MLRAKVRRIALANQKGGVGKTTTAINLAAYLARLGKRVLLVDLDPQGNATSGLGVRAERGVYHLLQGEPLEGLVHPVDGFHLLPATPDLVGATVELAGAPTALREALRDEGYDLVLLDAPPSLSPLTLNALAAAEGVVVPVQAEYYALEGVAGLLATLEEVRAGLNPRLRLLGILVTMYDGRTLLAQQVEAQLRAHFGEKVFWTVIPRNVRLAEAPSFGKTIAQHAPTSPGAHAYRRLAEEVMARVQEAGSHHHHHH | soluble
GPGSMSSIPVDVLNAVTQCNEKVTAVEKEIEEFTNQVRIDFRSKIEPLFDKRHLELEKIEGFWGSAFVAVESPLMGLLNGTIDPKIVRALTDFRVKTSVRDGSICRCVSVTFRPNMFVKEGTFSRELDPSVNTLSLQPILWKPGTEKARTDSLFRFFSPECKDIEFLERALTEFDELFQNPLLAFE | not soluble
MGSDKIHHHHHHMEKIAVAENLRAYYFIKSGDKTTSIRAVDNVSLHFFENEVYGIAGESGCGKSTLLKVLFGEIKPPLKLVDGEVVFKLDGEEYRINSMSLDQLKKIRWKYVSYVPQGSMSVLNPVRKIRRIFLDVIEEHTSMSREEAFSRIESYFEALGLPVRVLDSYPHQLSGGMRQRVTIALATVLNPKVIFADEPTTALDVVVQRGVIQLLKKIHKEQKNTLVIVTHDMGVHAHLATRIGVMYAGRLIEEAETHEIFKNPLHPYTRFLINSLPRFGDRSRKEGTPGSPPSLANLPSGCPFHPRCPIADQICMEMEPDLIEVARNHKVACWKVGVER | not soluble
IGEVDLTVRANMTYSKNEIKEYDEENSRYPYKMKYGFRVDQARGLIAEGLFKDYEEIRNRPSQGSGIMPGDIKYKDVNGDGVINGDDEVPIGATTRPNLIYGFGVSAQWKEFDINVHFQGAGKSSFFIDGFTVYPFQEKSWGNILTDVVGNYWSLGTNEDPNAKYPRLSYGGNSNNYRASTYWLRNGSYIRLKNVELGYNIPKRFVNKLHLDRVRLYLMGTNLLTFSDFKLWDPELGSSNGQQYPLSRTVTIGLTVGI | not soluble
MPISRYYDVKRDEKGERYLEPYVTGFLLLRLPLLNKGTAFTEEERRLLGLEGLLPPHVHTLEEQKERVYRRYRLIQSPLEKHIYLRHLQDRNEVLFYALVVDHLEEMLPILYTPTVGEAVREFSHIYRYPRGFTASTKNIDRIDEALQNVPLEDVRLIVATDSSAILGIGDQGYGGMAISIGKLTLYTAAGGVGPDKTLPVELDVGTDREDLLKDPLYLGVRHRRLRGEEYFRFLDRFVEAVRRRYPKALIQWEDFAKETAFQVLERYRKVIPSFNDDIQGTGAVALAGVLSACRLKGERLSDQVVVVYGAGAGGIGVAWALVEGMKREGLSEEEAKARVLVLDSKGLLVEGRSMEDYKRPYAQRPERLWGWRFAGEYPNLLETITNARATVLLGLSGQAGSFTEPVVRAMLANTPRPVIFPLSNPTSATEALPDDLVYWTEGRALVAAGSPFPPVGFKGRTVPIGQGNNAFVFPGLGLGAVLSRAREVTDGMVLEAAYALYDYTREHFPERIYPPVGRLREVSPYVAARVMQRALEEGVAEEARVQGLTLEALLDFVKSRFWEPRYLPYRPAPVI | soluble
GPLGSKLNDILHVYEKSKERELQSQLFNAWRNRFCFYTEECNIQAISKRNYQLEKMVLKKFRERLLEIVKSEE | soluble
SMHPVAGSNPAFCGPGKPSCLNEDAMRAADQFDLYSSQQNKYSHTVSHKPMVCQRQDPLNETHLQPTSGRNIEIKDELKKKKNLNRSGKRGRPSGTTKSAGYRTSTGRPLGTTKAAGFKTSPGRPLGTTKAAGYKVSPGRPPGSIKALSRLADLGYGCGTAAFPYPMMHSRVVHGLQETSGEVKPPSE | soluble
MEILIATGRLAENTVRKAAGEKADVLVADIDIAAFITPKKLTRAFEEAGLSKKYDLILLPGLVPGDFSKVSDELDCKIRLGPKHAYDLGFVLRFAEEVEFSVKVPACELLADVRKEEALELIREAEEEAVSPLSLRGVKLGGNSRMKVMGEIVGAAELNPADLEIKIEAFIARGADIIDLGATLNTLPGQVRSTVFLAKSLTDIPISIDTLDPELIKEGIEAGADLVLSLNSTNMETAGSVVAKAGVAAVIIPDEGNSLESLVNNIESARRLGIERIIADPILDPVGHNITESIVRYHEFHRRYPDIPLFFGAGNVTELMDVDTIGVNATLCGIGAETGASILFTPEYSDKAQGSIGELKKASEMMQLCRIRESSPKDLGIDLLFIKEKRKRPDSPLPKKVITARASKNWRQDPAGPIRVRIVPDKINGNGGLIVAEHEKAAIAGESAREVMDTLIELELVSSLDHAAYLGRELEKAELALRFNRSYAQDDIF | not soluble
SLNAEEKKGLQRAIEEITEIAKGFGLDFYPMRYEICPAEIIYTFGAYGMPTRFSHWSFGKQFHKMKLHYDLGLSKIYELVINSDPCYAFLLDSNSLIQNKLIVAHVLAHCDFFKNNCRFQNTKRDMVESMAATAERIKHYEQVHGIKEVESFLDAILSIQEHIDPSLVRPKLQWSVDDEEEEIEEAATPYDDLWSLDEKKPKKQVKKSKKPFPPRPEKDILLFIEEHSRELEPWQRDILTMMREEMLYFWPQLETKIMNEGWASYWHQRIIRELDLTSDEAIEFAKLNAGVVQPSKTGINPYYLGLKIFEDIEKRYNNPTEEMKKMGVQPDSGREKMFEVREIESDISFIRNYLTKELVMREDLYLFAAAGRDYKIIDKQWKSVRDQLVSMRVNGGFPYLTVNDGDYMKNNELYIKHWYEGIELDLKYLEKVLPYLFQLWGRSVHIESVLEDKEVMFSYDGKGVHRRYL | soluble
MGGSHHHHHHGMASALFRMLNSSFEDDPFFSESILAHRENMRQMIRSFSEPFGRDLLSISDGRGRAHNRRGHNDGEDSLTHTDVSSFQTMDQMVSNMRNYMQKLERNFGQLSVDPNGHSFCSSSVMTYSKIGDEPPKVFQASTQTRRAPGGIKETRKAMRDSDSGLEKMAIGHHIHDRAHVIKKSKNKKTGDEEVNQEFINMNESDAHAFDEEWQSEVLKYKPGRHNLGNTRMRSVGHENPGSRELKRREKPQQSPAIEHGRRSNVLGDKLHIKGSSVKSNKK | not soluble
GKDAHVILRSNFTLSKNKILNWEDTKKPYTYLENNGYANNVQRGFVAMGLFKDQQDVEMSPTQFGTVRPGDIKYRDINGDGKITDDDKVPLFAYSGVPQLMYGIGAEFRYKSWTLNVLFKGTGRNKFLYGGSDGRNFDGYMPFNQKDKGNIMTIAYNPENRWISAEYSGNQATENPNARFPRLYYGKNENNTKPSTFWMGDARYLRLQELSLAYNLKVPALQRILGINSMNIQLMCENLAVWDSVNIFDPEQATSCGQAYPLPARYSLQLYLNF | not soluble
